± gives the uncertainty stated by the source.
Assay: amyloid nucleation score (Sup35N fusion, yeast selection) (log enrichment); library NNK1; higher = more nucleation; inactive = no reads after selection
Procedure, shortened: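 The nucleation score, computed with DiMSum, is the log enrichment of output over input reads, centred on the mode score of non-aggregating sequences. Sequences with under 100 input reads were dropped. Reads were generated by Illumina sequencing of plasmid inserts from psi-negative yeast with Sup35N fused to peptides of 20 random codons, induced with 100 μM copper sulfate for 24 hours and grown 7 days at 30°C on medium lacking adenine and uracil.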

In order of rising amyloid nucleation score:
1. IVIAVMSGSYVSLKSWFLRH  -1.5 ± 1.3
2. YKYREGGKWPL  -1.3 ± 2.4
3. IAMLSCQRWMCQQTVTSKF  -1.29 ± 0.77
4. MVWPFKRRRWHYGILALLDR  -1.22 ± 0.75
5. LFRIPDWPEL  -1.07 ± 0.77
6. LALVDAHK  -1.02 ± 1
7. FIFWGDLFWV  -0.992 ± 0.32
8. GSHTGEFRYVF  -0.83 ± 0.42
9. FSVRHLSVSVLRMGTHLLDA  -0.746 ± 0.61
10. IFTRW  -0.741 ± 0.49
11. QSTLGGSKHAWLIENGGFGF  -0.685 ± 1.1
12. DWLFLEFGHFTMPEHTKELE  -0.68 ± 1.2
13. SWMCSPRACCLLTFNFECMC  -0.635 ± 0.5
14. AQLWRARREFSFMTPMPSVS  -0.624 ± 1.5
15. FFLEAACYSIFGVEK  -0.612 ± 0.3
16. FCIYVLFFRSVDYPLRVVEL  -0.529 ± 0.67
17. SLYFFLFRCVCKRLYSGWNV  -0.481 ± 1
18. AWIRGQTVSCLYYAEGLELG  -0.448 ± 0.71
19. LWWSSSLLASTAQCQGTGFM  -0.255 ± 0.76
20. LYRSLLN  -0.23 ± 1.1
21. CSNDMGEQWWEDRYCTGKWD  -0.204 ± 0.38
22. SHLGVVCNRLVYERETNVST  -0.191 ± 0.29
23. GRLISETNLAKSYSL  -0.187 ± 0.33
24. CLIESIWKLVVSNGSKYISY  -0.181 ± 0.18
25. DCVSHAGQRGIMCRSGSLRF  -0.138 ± 0.64
26. TCTFPKVIQSYAGRLAMPGY  -0.135 ± 0.58
27. NNSLISTGVRMNHVVLR  -0.091 ± 0.9
28. FTSLNVRKLRGACRTTSSHG  -0.077 ± 0.61
29. GKCMYRVCYSEA  -0.056 ± 0.46
30. SVPQLVPNHFRVSWANHS  -0.05 ± 1.4
31. LGAMRLFTRSLFLADWKYDV  -0.04 ± 0.45
32. GPSRRTLRGNFNHLVTYWCP  0.003 ± 0.46
33. NVRGSWVIMCYFTYVWMLGR  0.017 ± 0.35
34. RDKMDDWFQRHMESGTRTRE  0.053 ± 0.23
35. NSKCSLIQCTGPLVRERRSY  0.058 ± 0.31
36. SYVDRVLSSRSRWMKIVELN  0.083 ± 0.44
37. HAHVQCGESE  0.092 ± 0.73
38. YSYVRVIFYV  0.145 ± 1
39. ILEYWSISKKPYMIVMGGRV  0.15 ± 0.34
40. RTSRHVVVRREMRDRT  0.202 ± 0.21
41. HNKCSFLYMSQYARHRMYSS  0.218 ± 0.5
42. GEIGNIPLMKRRTEWQFVVA  0.25 ± 0.47
43. LVFLTYSSASARIPLRI  0.267 ± 0.29
44. LAYRR  0.274 ± 0.63
45. VSLCVSFFFYRSAVITVYAH  0.282 ± 0.58
46. FTARTGALGEVVWSFSLGLG  0.316 ± 0.45
47. VMPSSELYF  0.349 ± 0.39
48. FGNSFRSQGVSFM  0.414 ± 0.32
49. FMISRFLAMRILRTAIWRED  0.447 ± 0.78
50. LRSEEVFTHMRAGVAKSFWD  0.461 ± 0.72
51. TSHSETSEAFRRFSAPFLAN  0.497 ± 0.64
52. NRDYTVFKTRVFKSIFRIR  0.505 ± 0.78
53. WDWSERLQAFWSVTLSSNSW  0.517 ± 0.71
54. VDRLAEMHTLEWARSVRLSV  0.55 ± 0.92
55. RNSRICSFS  0.59 ± 0.35
56. YSMHKLSVFRRTYSVTISRT  0.591 ± 0.55
57. VLVGCLASQRVISENKGCKC  0.722 ± 0.81
58. CWGLRLLSFVRRLV  0.749 ± 1
59. IKEFRYMLKRYLLWFVDLLL  0.762 ± 0.59
60. RGLLYS  0.768 ± 0.75
61. FGYTVFIDFVSSGMMRFGGQ  0.784 ± 0.48
62. RAGCPDVGRRLSCSRSVLPR  0.789 ± 0.27
63. PYFLNCRPLRA  0.815 ± 0.52
64. SFFLFRENFEMSNIRFRYVN  0.995 ± 0.68
65. FSSLMLLTGEYSLSIWCKRS  1 ± 0.8
66. TMIGILWCSYINVALYSGGL  1.22 ± 0.28
67. TFGNLRMDVRAPTRFKDLLK  1.27 ± 0.47
68. SNQSDLMLLMENMIDYMKSL  1.32 ± 0.39
69. LMEFHLYQMYSLRLVARRWW  1.32 ± 0.38
70. DYLLCLILAKVWDDSNGSWV  1.52 ± 0.5
71. LLGMRFSVVPSPATFGWTHF  1.81 ± 0.18
72. MYSKIYIFNLEFLMTYWNAL  1.92 ± 0.3
73. HLKGHFEGWGLIICVSSGFD  2.08 ± 0.14
74. LLHCKVICRRCCVIWSSCSI  2.09 ± 0.46
75. WSSKLFCIGLDLCVVDDMCF  2.44 ± 0.12
76. SRYWKFRCTFSTKFESTKRS  3.95 ± 0.17
77. SLWNSCSSE  4.68 ± 0.064
78. TFFRTTCTICCM  5.01 ± 0.053
79. YDYHRNLSNHFLCFTLNWLT  5.23 ± 0.072
80. GFNLSRTAMMICFGYFTA  6.61 ± 0.073

In the case of LHSIDVDIDVEFLSTHRDGP, the amyloid nucleation score is reported as “inactive”.
For FRVLWDYCVSSTVRRVTSLG, the amyloid nucleation score was “inactive”.
For EDDFASMRLDSLRELVLHNR, the amyloid nucleation score was “inactive”.
In the case of VFVVSVNHRMIVNFTSCLNV, the amyloid nucleation score is reported as “inactive”.
For VLCLHWWLRTILGPLLAYAN, the amyloid nucleation score was “inactive”.
